Tests used:
Test in all cases: AVEXIS screen signal:noise (double-corrected)
ADP390 = biological target: ADP390
ADP144 = biological target: T1, ADP144
T1 chain: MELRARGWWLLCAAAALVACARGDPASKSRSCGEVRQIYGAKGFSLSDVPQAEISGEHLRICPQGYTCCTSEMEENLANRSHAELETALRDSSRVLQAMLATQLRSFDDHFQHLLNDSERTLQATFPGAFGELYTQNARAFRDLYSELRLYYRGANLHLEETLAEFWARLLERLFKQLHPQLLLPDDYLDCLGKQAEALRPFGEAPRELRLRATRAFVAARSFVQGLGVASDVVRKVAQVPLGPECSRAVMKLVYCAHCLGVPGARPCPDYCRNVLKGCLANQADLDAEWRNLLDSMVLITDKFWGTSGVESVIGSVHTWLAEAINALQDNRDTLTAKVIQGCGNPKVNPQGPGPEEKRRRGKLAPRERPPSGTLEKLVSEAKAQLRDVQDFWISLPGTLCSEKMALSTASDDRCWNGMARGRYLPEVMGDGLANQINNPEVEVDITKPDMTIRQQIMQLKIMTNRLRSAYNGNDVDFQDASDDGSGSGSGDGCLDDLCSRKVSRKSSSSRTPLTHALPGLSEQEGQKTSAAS

ADP103 = biological target: T2, ADP103
T2 chain: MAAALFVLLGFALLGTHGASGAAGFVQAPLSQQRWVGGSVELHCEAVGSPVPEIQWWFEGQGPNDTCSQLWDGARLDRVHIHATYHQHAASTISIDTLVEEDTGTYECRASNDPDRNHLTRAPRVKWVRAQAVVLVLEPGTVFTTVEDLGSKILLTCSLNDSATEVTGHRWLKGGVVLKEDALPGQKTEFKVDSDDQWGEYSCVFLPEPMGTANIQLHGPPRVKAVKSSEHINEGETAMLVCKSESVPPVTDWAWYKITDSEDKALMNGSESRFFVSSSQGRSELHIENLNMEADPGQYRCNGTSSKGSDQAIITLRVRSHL

ADP366 = biological target: T3, ADP366
T3 chain: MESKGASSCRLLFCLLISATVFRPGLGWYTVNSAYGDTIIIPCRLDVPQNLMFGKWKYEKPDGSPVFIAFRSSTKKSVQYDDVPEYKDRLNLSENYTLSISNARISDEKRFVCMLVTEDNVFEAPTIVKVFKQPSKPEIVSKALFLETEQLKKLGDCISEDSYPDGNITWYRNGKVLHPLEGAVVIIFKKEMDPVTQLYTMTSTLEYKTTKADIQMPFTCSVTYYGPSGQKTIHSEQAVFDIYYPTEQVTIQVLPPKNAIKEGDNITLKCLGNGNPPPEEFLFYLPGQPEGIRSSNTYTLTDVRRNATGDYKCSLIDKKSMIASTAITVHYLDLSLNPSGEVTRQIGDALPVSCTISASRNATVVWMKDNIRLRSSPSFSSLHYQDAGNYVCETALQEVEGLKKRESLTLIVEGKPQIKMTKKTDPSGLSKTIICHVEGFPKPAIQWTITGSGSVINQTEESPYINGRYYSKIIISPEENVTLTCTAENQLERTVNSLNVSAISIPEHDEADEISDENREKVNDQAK

ADP368 = biological target: T4, ADP368
T4 chain: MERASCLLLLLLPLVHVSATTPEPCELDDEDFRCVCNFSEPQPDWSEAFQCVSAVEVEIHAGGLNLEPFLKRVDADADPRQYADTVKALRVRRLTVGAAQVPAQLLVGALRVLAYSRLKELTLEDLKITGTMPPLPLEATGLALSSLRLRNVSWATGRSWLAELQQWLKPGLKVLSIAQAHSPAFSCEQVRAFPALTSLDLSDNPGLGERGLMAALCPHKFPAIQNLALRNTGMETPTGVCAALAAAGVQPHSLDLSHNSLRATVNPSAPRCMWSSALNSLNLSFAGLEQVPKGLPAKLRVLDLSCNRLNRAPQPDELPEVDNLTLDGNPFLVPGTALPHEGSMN

ADP315 = biological target: T5, ADP315
T5 chain: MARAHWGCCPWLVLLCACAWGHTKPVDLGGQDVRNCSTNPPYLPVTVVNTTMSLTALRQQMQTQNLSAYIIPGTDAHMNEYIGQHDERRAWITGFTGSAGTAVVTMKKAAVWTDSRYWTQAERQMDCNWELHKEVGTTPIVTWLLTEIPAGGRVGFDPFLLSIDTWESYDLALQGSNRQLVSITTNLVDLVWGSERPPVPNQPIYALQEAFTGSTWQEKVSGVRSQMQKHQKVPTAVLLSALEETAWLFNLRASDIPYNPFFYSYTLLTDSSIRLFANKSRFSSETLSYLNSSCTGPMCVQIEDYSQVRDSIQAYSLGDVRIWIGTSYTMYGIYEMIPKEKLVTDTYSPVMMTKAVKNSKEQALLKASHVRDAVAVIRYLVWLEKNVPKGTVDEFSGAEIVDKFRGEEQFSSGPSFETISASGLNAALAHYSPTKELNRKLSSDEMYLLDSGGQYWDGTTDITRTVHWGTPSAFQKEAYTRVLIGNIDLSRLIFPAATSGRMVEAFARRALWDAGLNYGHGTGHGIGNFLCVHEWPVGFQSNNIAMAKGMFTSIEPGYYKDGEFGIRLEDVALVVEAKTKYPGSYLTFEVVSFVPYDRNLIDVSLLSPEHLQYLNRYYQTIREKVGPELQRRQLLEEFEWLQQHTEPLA

ADP323 = biological target: ADP323
ADP158 = biological target: ADP158

B1: ADP253 (protein)
chain: ANAFYVDNGQEMLIKEKEHYSSDSEHHKEESASIGNLNVFFPAENYHFSTYMGFDRRSFLPSNEIELEKMIGANFANEVKNYCSRQNVAQKIGDYLNIAFEYSRALEELRSEMILDFNKRKHLTNNADDTILHMIENAEKRKNDPNYKEAYENKDYANNANIFMNEYSNPLSTKYNKILKEYLCHLFVNNPGTKPLERLYYNSLALGELVEPIRNKFKSLASSTIDFNYEIHMASASNIYLLAHFLVLSLAYLSYNEYFTTGTKSFYSLPTILTANSDNSFFMLNEMCNIHYNPNKNFKKDITFIPIESRPKRTTTFYGERRLTCDLLELVLNAIMLININEINNVFSNNNVDGYENSLSFSHNAIRIFSKVCPKINNDNVLKCEFEESSLYNPKIIKNDASEKSSQKNLKKAFDLLRTYAEIEGHSAEGSTSPYYVSLILDDMKYNDFYKYTLWYEPRELIYGDIRGMQMKKKKKTKYIYNDFMKKSTQLKKKLIKNDLKYNLKSKGLVFLYAMIDKYGSILNKAQKAKVQFLNSASSIRYYLYLNKVIFKSAKTYLDIMKRVLEELQTSTNTPLKFLVRGNYIENINNIARNDNMFYANLFVLTALSRRDPVKDYYNDKRKMLSATLAEKFANSASMLIPHKLRKLVVSMKKGLLKKKLLTSLAKVKLLQHIPAHMLENIASSIRFTTHTIATMQIIQNAKYMSKHNFAQYDSKGMLARQIFTKGGFAEYADNLMAKWFSKGFEEYKREQIENFKMENSIDSELKDSEREDENDASEESAKKKLQDLQLEEREKMKKENSLLFNQADKWDQFINKELVRALGLWLEFNDNPANAASFVYKVVEDSKHLLENNIDNNIIFSRTVKPTKQTAFRRFFNKILSLGNMLLRKPSFRVEHALWFGATIDIKKAFILLEKVSELHKMLNNQDESWLINEAFIEIVDHVVDLSTYKHVREPFGVARNPGMMAINPKYAELSHENRLRELQNSMCADHCSSVWKVISSFALHHLKNPDSLHTYESKFSKNSFGNKIDDKDFVHNFKMILGGDAVLHYFDNLLPKTMKKDLKAMKYGVSLTSAYSLKLTKIIFSQMQLPYLSQMFYMQAPYFGHFIGKWQKKRQQSRLKEIMSFMTLGSLSAYTLFSAMDITQQAKDIGAGPVASCFTTRMSPPQQICLNSVVNAALSTSTQSAMKCVFSV
modifications: bait human Fc-tagged dimer; N-glycosylation sequons mutated in Plasmodium baits
binding score (ADP390): 7.2

B2: ADP180 (protein)
chain: RGNQISKCVFYDKRNKDLKQVFYVPTNDVNMYKETIRKLLSREISLLEEPLNENSDSHNMANKKNVANFEEIKKNDENNNRKRKEMEEKLKYIEKYRNYAKGVLKNVEFKCENVDDLKSKVKCNLCVYTEIVNNKHIRQGQIIQIFMNECMYGFYYYDNINQYTQNNEYNNKALKDYNSAQKLDDIYFNIAKDISEGNVNGINFFKQQSSKYHPVCYVTE
modifications: bait human Fc-tagged dimer; N-glycosylation sequons mutated in Plasmodium baits
binding score (ADP144): 20
binding score (ADP103): 9.97

B3: ADP247 (protein)
chain: GIISGRINIAAEFHINIFVKDYFKKKKLTFVNFVSLCPKGFNIENNKCIPCPIGLYYSNSKSINQCIPCENYRKHSTTLYNSAKSKTECLCKPGYFLKDKRCVKCVAGFYKDQIGNFKCQGTCENTKMSIEVGAKNYEELKCTCKDGYFTEKKKKECIPCPFGNYCIYNPKVKYKADIIRCKNNKLTLHRGSKSPNDCLCSQGYYHDYKMDECELCNYDQYKSHISNDPCVPFISKSLVNQEYLINEPYFQYTNIYIKQTSNIIFAPKKGSKMFHEATLCETGYSYSMNKAICSICRYNNYCLGLDHSSIICPKNSITIKLKSVSALDCLCIKGYGRIIINTNQAFTISCIPCPYNTFQPHHSYGKCIPCPPHTFTKITGATSITECIPKMGYYNIAFEYIYEYSKQQMLNSIPHFIQYYHYFLKNQYEHFA
modifications: bait human Fc-tagged dimer; N-glycosylation sequons mutated in Plasmodium baits
binding score (ADP366): 5.26
binding score (ADP368): 5.45
binding score (ADP315): 5.78
binding score (ADP323): 5.73

B4: ADP167 (protein)
chain: EFKRKQKVEINSLQTNKNNDNIREEKIKGDVESQPDVDGDTCVIFSSSEGNSRNCWCPRGYILCSEEDVLDVQGKLNEIKNKHERSLVTPLWMKRLCDNSNDVGFKSMSVVIDYELAVLCKDGSNKDYADFEIIGASGYITGEEMIEEQKRNPWYVPRKCTVNNFYLCRKVENDNVNCAYTPWSDWSACKNNAQKRYRKVRRSNQNNENFCLWNDKIVPRNIMEQTRSC
modifications: bait human Fc-tagged dimer; N-glycosylation sequons mutated in Plasmodium baits
binding score (ADP158): 19.1
